Measurements as given in the Human Domainome abundance scans (Beltran et al. 2025).
± gives the uncertainty stated by the source.

B1: Ankyrin-1, residues 1405 to 1484; numbered along this chain, P16157 (parent)
chain: MKMAVISEHLGLSWAELARELQFSVEDINRIRVENPNSLLEQSVALLNLWVIREGQNANMENLYTALQSIDRGEIVNMLE
B2: Cyclin-F, residues 28 to 80; numbered along this chain, P41002 (parent)
chain: RNLTILSLPEDVLFHILKWLSVEDILAVRAVHSQLKDLVDNHASVWACASFQE

Variants of: B1
Assay: abundance fitness (aPCA) (normalised: wild type 0, dead -1); higher = more abundant; growth selection in yeast, the domain comes from the species named
Settings: Homo sapiens
For M78F, the abundance fitness was -0.146 ± 0.11. For M78G, the abundance fitness was -0.085 ± 0.065. Variant M78H has an abundance fitness of -0.158 ± 0.15. M78I showed an abundance fitness of 0.041 ± 0.12. Work on M78K yielded an abundance fitness of 0.087 ± 0.11. In the case of M78L, the abundance fitness is reported as 0.001 ± 0.059. Work on M78N yielded an abundance fitness of -0.01 ± 0.15. Work on M78Q yielded an abundance fitness of -0.061 ± 0.098. In the case of M78R, the abundance fitness is reported as 0.034 ± 0.051. Work on M78S yielded an abundance fitness of -0.121 ± 0.066. With M78T the abundance fitness was 0.085 ± 0.091. M78V showed an abundance fitness of 0.043 ± 0.061. M78W showed an abundance fitness of -0.19 ± 0.075. With L79A the abundance fitness was 0.002 ± 0.064. With L79C the abundance fitness was 0.045 ± 0.13. In the case of L79D, the abundance fitness is reported as -0.54 ± 0.32. With L79E the abundance fitness was -0.335 ± 0.11. For L79F, the abundance fitness was -0.331 ± 0.14. L79G gave an abundance fitness of -0.379 ± 0.059. Variant L79H has an abundance fitness of -0.199 ± 0.15. With L79I the abundance fitness was -0.019 ± 0.11. For L79K, the abundance fitness was -0.429 ± 0.21. For L79M, the abundance fitness was 0.039 ± 0.082. In the case of L79P, the abundance fitness is reported as -0.3 ± 0.12. L79Q showed an abundance fitness of -0.115 ± 0.11. For L79R, the abundance fitness was -0.528 ± 0.082. Work on L79S yielded an abundance fitness of 0.014 ± 0.052. L79T gave an abundance fitness of -0.202 ± 0.096. In the case of L79V, the abundance fitness is reported as 0.132 ± 0.049. With L79Y the abundance fitness was -0.319 ± 0.14. With E80A the abundance fitness was -0.083 ± 0.081. In the case of E80C, the abundance fitness is reported as -0.092 ± 0.099. For E80D, the abundance fitness was 0.164 ± 0.071. With E80F the abundance fitness was -0.023 ± 0.1. E80G gave an abundance fitness of 0.126 ± 0.08. Work on E80H yielded an abundance fitness of -0.06 ± 0.11. Work on E80I yielded an abundance fitness of -0.682 ± 0.26. E80L showed an abundance fitness of -0.329 ± 0.12. Work on E80N yielded an abundance fitness of -0.045 ± 0.14. Work on E80P yielded an abundance fitness of 0.049 ± 0.21. E80R showed an abundance fitness of -0.17 ± 0.13. Variant E80S has an abundance fitness of -0.056 ± 0.099. Work on E80V yielded an abundance fitness of -0.154 ± 0.13. E80Y gave an abundance fitness of -0.048 ± 0.1.

Variants of: B2
Assay: as above
Settings: Homo sapiens
Work on R1A yielded an abundance fitness of -1.04 ± 0.42. For R1C, the abundance fitness was -0.246 ± 0.16. Variant R1G has an abundance fitness of -0.193 ± 0.12. Variant R1I has an abundance fitness of 0.032 ± 0.34. R1K showed an abundance fitness of 0.091 ± 0.42. R1L showed an abundance fitness of -0.305 ± 0.44. Work on R1M yielded an abundance fitness of -0.359 ± 0.31. Work on R1N yielded an abundance fitness of 0.134 ± 0.27. R1S gave an abundance fitness of 0.016 ± 0.15. For R1T, the abundance fitness was -0.058 ± 0.13. R1V gave an abundance fitness of -0.465 ± 0.2. R1W gave an abundance fitness of -0.914 ± 0.28. With N2A the abundance fitness was -0.492 ± 0.14. With N2C the abundance fitness was -0.357 ± 0.12. N2D gave an abundance fitness of -0.306 ± 0.19. Work on N2E yielded an abundance fitness of -0.348 ± 0.19. Work on N2F yielded an abundance fitness of -0.407 ± 0.19. With N2H the abundance fitness was -0.065 ± 0.14. With N2I the abundance fitness was -0.618 ± 0.23. Work on N2K yielded an abundance fitness of -0.182 ± 0.13. Variant N2P has an abundance fitness of -0.185 ± 0.11. In the case of N2Q, the abundance fitness is reported as -0.331 ± 0.14. For N2R, the abundance fitness was -0.078 ± 0.085. Work on N2S yielded an abundance fitness of -0.129 ± 0.085. Work on N2T yielded an abundance fitness of -0.168 ± 0.11. Work on N2V yielded an abundance fitness of -0.089 ± 0.11. Variant N2W has an abundance fitness of -0.871 ± 0.13. With N2Y the abundance fitness was -0.366 ± 0.14. With L3A the abundance fitness was -0.708 ± 0.13. Work on L3C yielded an abundance fitness of -0.316 ± 0.094. Variant L3D has an abundance fitness of -0.598 ± 0.21. With L3E the abundance fitness was -0.727 ± 0.16. L3F gave an abundance fitness of -0.078 ± 0.17. L3G showed an abundance fitness of -0.435 ± 0.079. In the case of L3H, the abundance fitness is reported as -0.283 ± 0.15. L3I gave an abundance fitness of -0.112 ± 0.17. With L3K the abundance fitness was -0.354 ± 0.16. Variant L3M has an abundance fitness of -0.276 ± 0.13. With L3N the abundance fitness was -0.337 ± 0.2. For L3P, the abundance fitness was -0.322 ± 0.13. Variant L3Q has an abundance fitness of -0.863 ± 0.31. For L3R, the abundance fitness was -0.134 ± 0.077. For L3S, the abundance fitness was -0.09 ± 0.098. In the case of L3T, the abundance fitness is reported as -0.437 ± 0.15. In the case of L3W, the abundance fitness is reported as -0.596 ± 0.1. For L3Y, the abundance fitness was 0.109 ± 0.18. T4A showed an abundance fitness of -0.768 ± 0.13. Work on T4C yielded an abundance fitness of -0.55 ± 0.17. T4D showed an abundance fitness of -0.076 ± 0.11. Work on T4E yielded an abundance fitness of -0.605 ± 0.15. Variant T4G has an abundance fitness of -0.068 ± 0.082. Variant T4H has an abundance fitness of -0.059 ± 0.14. T4I gave an abundance fitness of -0.866 ± 0.23. For T4K, the abundance fitness was -0.611 ± 0.22. T4L showed an abundance fitness of -0.836 ± 0.13. With T4M the abundance fitness was -0.695 ± 0.17. For T4N, the abundance fitness was -0.046 ± 0.14. Work on T4Q yielded an abundance fitness of -0.481 ± 0.15. For T4R, the abundance fitness was -0.735 ± 0.1. For T4S, the abundance fitness was 0.087 ± 0.093. In the case of T4V, the abundance fitness is reported as -0.997 ± 0.15. In the case of T4W, the abundance fitness is reported as -0.65 ± 0.14. With T4Y the abundance fitness was -0.85 ± 0.29. For I5A, the abundance fitness was -0.657 ± 0.11. I5C showed an abundance fitness of -0.692 ± 0.16. Variant I5D has an abundance fitness of -0.868 ± 0.14. For I5E, the abundance fitness was -0.679 ± 0.21. For I5F, the abundance fitness was -0.254 ± 0.16. Variant I5G has an abundance fitness of -0.78 ± 0.097. In the case of I5H, the abundance fitness is reported as -0.771 ± 0.18. I5K gave an abundance fitness of -0.758 ± 0.19. Variant I5L has an abundance fitness of 0.12 ± 0.091. I5M showed an abundance fitness of -0.254 ± 0.12. Work on I5N yielded an abundance fitness of -0.907 ± 0.19. With I5P the abundance fitness was -0.559 ± 0.15. With I5S the abundance fitness was -1.04 ± 0.15. I5T gave an abundance fitness of -0.697 ± 0.17. I5V gave an abundance fitness of -0.243 ± 0.087. Work on I5W yielded an abundance fitness of -0.615 ± 0.15. In the case of I5Y, the abundance fitness is reported as -0.544 ± 0.18. For L6A, the abundance fitness was -0.898 ± 0.15. Work on L6C yielded an abundance fitness of -0.695 ± 0.13. With L6D the abundance fitness was -0.593 ± 0.29. With L6E the abundance fitness was -0.889 ± 0.24. In the case of L6F, the abundance fitness is reported as -0.356 ± 0.16. In the case of L6H, the abundance fitness is reported as -0.691 ± 0.24. In the case of L6K, the abundance fitness is reported as -0.806 ± 0.18. L6M showed an abundance fitness of -0.486 ± 0.15. With L6N the abundance fitness was -0.691 ± 0.17. For L6P, the abundance fitness was -0.674 ± 0.16. For L6Q, the abundance fitness was -0.427 ± 0.15. For L6R, the abundance fitness was -0.83 ± 0.099. L6S gave an abundance fitness of -0.885 ± 0.13. L6T gave an abundance fitness of -0.486 ± 0.12. L6V showed an abundance fitness of -0.665 ± 0.13. L6W gave an abundance fitness of -0.678 ± 0.12. In the case of L6Y, the abundance fitness is reported as -0.423 ± 0.15. Variant S7A has an abundance fitness of -0.427 ± 0.1. S7C gave an abundance fitness of -0.316 ± 0.12. In the case of S7D, the abundance fitness is reported as 0.101 ± 0.13. In the case of S7E, the abundance fitness is reported as -0.27 ± 0.11. With S7F the abundance fitness was -0.547 ± 0.14. With S7G the abundance fitness was -0.31 ± 0.076. S7H showed an abundance fitness of -0.242 ± 0.15. Work on S7I yielded an abundance fitness of -0.426 ± 0.2. Variant S7K has an abundance fitness of -0.109 ± 0.13. For S7L, the abundance fitness was -0.647 ± 0.1. In the case of S7M, the abundance fitness is reported as -0.195 ± 0.14. For S7N, the abundance fitness was -0.118 ± 0.13. S7P showed an abundance fitness of -0.767 ± 0.17. With S7Q the abundance fitness was -0.232 ± 0.13. Variant S7T has an abundance fitness of -0.381 ± 0.13. S7V gave an abundance fitness of -0.647 ± 0.11. Work on S7W yielded an abundance fitness of -0.693 ± 0.12. S7Y gave an abundance fitness of -0.869 ± 0.22. With L8A the abundance fitness was -0.509 ± 0.31. L8C showed an abundance fitness of -0.993 ± 0.38. With L8G the abundance fitness was -0.939 ± 0.23. For L8K, the abundance fitness was -0.744 ± 0.44. In the case of L8M, the abundance fitness is reported as -0.407 ± 0.4. L8N showed an abundance fitness of -0.755 ± 0.29. Variant L8Q has an abundance fitness of -0.925 ± 0.39. L8R gave an abundance fitness of -0.833 ± 0.24.
